Data: PMC8528726, “Kinetics of H2O2-driven catalysis by a lytic polysaccharide monooxygenase from the fungus Trichoderma reesei” (The Journal of Biological Chemistry, 2021)

Substrate: O=C1O[C@H]([C@@H](O)CO)C(O)=C1O
Experiment: purified protein
Assay type: biochemical, Trichoderma reesei
Conditions: 50 mM sodium acetate pH 5.0, 25 °C
[1] = ascorbate peroxidase reaction, co-substrate H2O2, true value extrapolated over [H2O2], ping-pong, insufficient AscA saturation, treat with caution

B1: TrAA9A (Trichoderma reesei QM6a) (protein)
chain: HGHINDIVINGVWYQAYDPTTFPYESNPPIVVGWTAADLDNGFVSPDAYQNPDIICHKNATNAKGHASVKAGDTILFQWVPVPWPHPGPIVDYLANCNGDCETVDKTTLEFFKIDGVGLLSGGDPGTWASDVLISNNNTWVVKIPDNLAPGNYVLRHEIIALHSAGQANGAQNYPQCFNIAVSGSGSLQPSGVLGTDLYHATDPGVLINIYTSPLNYIIPGPTVVSGLPTSVAQGSSAATATASATVPGGGSGPTSRTTTTARTTQASSRPSSTPPATTSAPAGGPTQTLYGQCGGSGYSGPTRCAPPATCSTLNPYYAQCLN
notes: saturated with copper
B1 gave a Km [1] of 140 µM, a kcat [1] of 2.1 s⁻¹ and a K0.5 (cellulose peroxygenase reaction, priming reductant, H2O2 and BMCC present, varied: cofactor) of 0.1 mM.
